Test results taken from paper doi:10.1101/2024.05.10.593077.
Where “and” joins values, the source holds several entries; their conditions need not be identical. Equal values may be shown once.

How the values were obtained:
Human FcγRI (WT) (human) [1] = target: Human FcγRI (WT) (human) (UniProt P12314); assay: SPR
Human FcγRI (WT) (human) [2] = target: Human FcγRI (WT) (human) (UniProt P12314); assay: high-speed atomic force microscopy
[3] = target: Trastuzumab ΔP230 (IgG1 with deletion of Pro230 in the lower hinge) (human); assay: SEC

Sequence of UniProt P12314 (P12314 16-292): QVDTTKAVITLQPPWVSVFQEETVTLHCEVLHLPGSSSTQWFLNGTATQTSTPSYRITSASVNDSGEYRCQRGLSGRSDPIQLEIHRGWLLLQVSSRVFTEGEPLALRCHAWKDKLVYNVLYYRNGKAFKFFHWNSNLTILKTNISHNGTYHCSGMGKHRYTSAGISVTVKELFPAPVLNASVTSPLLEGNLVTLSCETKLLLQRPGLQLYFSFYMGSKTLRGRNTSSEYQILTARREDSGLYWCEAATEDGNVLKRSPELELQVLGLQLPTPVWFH

Row | Kd (Human FcγRI (WT) (human) [1]) | stoichiometry N (IgG1 WT:FcγRI) (Human FcγRI (WT) (human) [2]) | stoichiometry N (ΔP230:FcγRI (mol:mol)) (Human FcγRI (WT) (human) [2]) | ratio monomer:dimer (monomer:dimer) [3] | Substance
1 | 920 pM | – | – | – | Trastuzumab CSCS (IgG1 with the double substitution Cys226Ser and Cys229Ser) (antibody)
2 | 890 pM | 1 | – | – | Trastuzumab WT, anti-HER2 humanized IgG1 (antibody)
3 | 23500 pM | – | 1 and 2 | 6 | Trastuzumab ΔP230 (IgG1 with deletion of Pro230 in the lower hinge) (antibody)
